Biological target: full-length human leucine-rich repeat kinase 1 (LRRK1, residues 1-2015) (human) (UniProt Q38SD2)
Experiment: mass photometry; undiluted 'monomer' and 'dimer' gel filtration fractions added to detergent-free buffer (20 mM Tris, 150 mM NaCl, 5 mM MgCl2 pH 8.3); OneMP mass photometer; dimer fraction held monomers and dimers at approximately a 1:2 ratio, alongside higher-order species

stoichiometry N: 2
Substance: full-length human leucine-rich repeat kinase 1 (LRRK1, residues 1-2015) (from UniProt Q38SD2 1-2015) (enzyme)

Reference: PMC10412621
